Assay results as given in patent publication US20230141177A1.

Experiments:
[1] = target: Aβ aggregates in the high molecular weight (HMW) fraction of pooled soluble human AD brain extract (>70 kDa to ~700 kDa) (human) (UniProt P05067); assay: SPR, immobilized antibody, brain extract fraction at 100 µg/ml injected; Study 1
[2] = target: AβO in the low molecular weight (LMW) fraction of pooled soluble human AD brain extract (~8 kDa to ~70 kDa) (human) (UniProt P05067); assay: as above
[3] = target: AβO in the low molecular weight (LMW) fraction of pooled soluble human AD brain extract (~8 kDa to ~70 kDa) (human) (UniProt P05067); assay: SPR; BRU on LMW fraction divided by BRU on HMW fraction; Study 2
[4] = target: AβO in the low molecular weight (LMW) fraction of pooled soluble human AD brain extract (~8 kDa to ~70 kDa) (human) (UniProt P05067); assay: SPR; BRU on LMW fraction divided by BRU on HMW fraction; Study 3
[5] = target: AβO in the low molecular weight (LMW) fraction of pooled soluble human AD brain extract (~8 kDa to ~70 kDa) (human) (UniProt P05067); assay: SPR; BRU on LMW fraction divided by BRU on HMW fraction; Study 1
[6] = target: Aβ aggregates in the high molecular weight (HMW) fraction of pooled soluble human AD brain extract (>70 kDa to ~700 kDa) (human) (UniProt P05067); assay: SPR, immobilized antibody, brain extract fraction at 100 µg/ml injected; Study 2
[7] = target: AβO in the low molecular weight (LMW) fraction of pooled soluble human AD brain extract (~8 kDa to ~70 kDa) (human) (UniProt P05067); assay: as above
[8] = target: Aβ aggregates in the high molecular weight (HMW) fraction of pooled soluble human AD brain extract (>70 kDa to ~700 kDa) (human) (UniProt P05067); assay: SPR, immobilized antibody, brain extract fraction at 100 µg/ml injected; Study 3
[9] = target: AβO in the low molecular weight (LMW) fraction of pooled soluble human AD brain extract (~8 kDa to ~70 kDa) (human) (UniProt P05067); assay: as above

| Binder | Binding to HMW (BRU) [1] [BRU] | Binding to LMW (BRU) [2] [BRU] | LMW/HMW ratio [3] | LMW/HMW ratio [4] | LMW/HMW ratio [5] | Binding to HMW (BRU) [6] [BRU] | Binding to LMW (BRU) [7] [BRU] | Binding to HMW (BRU) [8] [BRU] | Binding to LMW (BRU) [9] [BRU] |
| --- | --- | --- | --- | --- | --- | --- | --- | --- | --- |
| parental antibody, PMN310 humanized antibody variant VH2/Vk5 (human IgG4 S241P / kappa) (antibody, V domains shown) VH: QVQLVQSGAEVKKPGASVKMSCKASGYSFTSYWINWVKQRPGQGLEWIGDVHPGRGVSTYNAKFKSRATLTLDTSISTAYMELSSLRSEDTAVYYCSRSHGNTYWFFDVWGQGTTVTVSS VL: DVLMTQSPLSLPVTLGQPASISCRSSQSIVHSNGNTYLEWYQQRPGQSPRLLIYKVSNRFSGVPDRFSGSGSGTDFTLKISRVEAEDVGVYYCFQGSHVPFTFGQGTKLEIKR | 27 | 27 | 1.31 | 1.52 | 1 | 13.5 | 17.7 | 5 | 7.6 |
| Clone 5 (affinity matured VH with parental Vk, human IgG4 S241P / kappa) (antibody, V domains shown) VH: QVQLVQSGAEVKKPGASVKMSCKASGYSFTSYWINWVKQRPGQGLEWIGDVHPGRGVSTYNAKFKSRATLTLDTSISTAYMELSSLRSEDTAVYYCARGALSPYWFFDVWGQGTTVTVSS VL: DVLMTQSPLSLPVTLGQPASISCRSSQSIVHSNGNTYLEWYQQRPGQSPRLLIYKVSNRFSGVPDRFSGSGSGTDFTLKISRVEAEDVGVYYCFQGSHVPFTFGQGTKLEIKR | 15 | 15 | 1.43 | 1.2 | 1 | 6.57 | 9.42 | 7.88 | 9.45 |
| Clone 14 (affinity matured VH with parental Vk, human IgG4 S241P / kappa) (antibody, V domains shown) VH: QVQLVQSGAEVKKPGASVKMSCKASGYSFTSYWINWVKQRPGQGLEWIGDVHPGRGVSTYNAKFKSRATLTLDTSISTAYMELSSLRSEDTAVYYCAKSDASGYWFFDVWGQGTTVTVSS VL: DVLMTQSPLSLPVTLGQPASISCRSSQSIVHSNGNTYLEWYQQRPGQSPRLLIYKVSNRFSGVPDRFSGSGSGTDFTLKISRVEAEDVGVYYCFQGSHVPFTFGQGTKLEIKR | 16 | 18 | 1.47 | 1.45 | 1.1 | 7.55 | 11.1 | 4.38 | 6.34 |
| Clone 4 (affinity matured VH with parental Vk, human IgG4 S241P / kappa) (antibody, V domains shown) VH: QVQLVQSGAEVKKPGASVKMSCKASGYSFTSYWINWVKQRPGQGLEWIGDVHPGRGVSTYNAKFKSRATLTLDTSISTAYMELSSLRSEDTAVYYCARVSPTGYWFFDVWGQGTTVTVSS VL: DVLMTQSPLSLPVTLGQPASISCRSSQSIVHSNGNTYLEWYQQRPGQSPRLLIYKVSNRFSGVPDRFSGSGSGTDFTLKISRVEAEDVGVYYCFQGSHVPFTFGQGTKLEIKR | 21 | 28 | 1.55 | 1.54 | 1.32 | 11.2 | 17.3 | 6.77 | 10.1 |
